Experiments:
[1] = biological target: T1, Ets-1 short (equivalent of Ets-2 360-464) (Mus musculus, UniProt P27577 331-440); assay: EMSA; apparent Kd; EMSA: 50 mM Tris-HCl pH 7.5, 25 mM NaCl, 50 mM L-arginine-HCl, 0.5 mM EDTA, 0.1% Tween 20, 2 mM DTT, 5% glycerol, room temperature 15 min; probe 0.1 nM (Ets-2); conditions: protein: recombinant; tags: His tag removed by TEV; label: 5'-32P on strand 1; blunt
T1 sequence: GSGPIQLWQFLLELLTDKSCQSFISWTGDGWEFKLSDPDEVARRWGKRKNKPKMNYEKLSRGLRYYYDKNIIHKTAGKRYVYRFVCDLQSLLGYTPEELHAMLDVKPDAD

[2] = biological target: T2, Ets-2 360-464 (core Ets domain) (Homo sapiens, UniProt P15036 360-464); assay: as above; conditions: protein: recombinant; tags: His tag removed by TEV; label: 5'-32P on strand 1; blunt
T2 sequence: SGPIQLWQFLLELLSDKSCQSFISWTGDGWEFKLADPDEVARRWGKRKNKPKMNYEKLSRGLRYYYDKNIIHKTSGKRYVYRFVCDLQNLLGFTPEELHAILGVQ

[3] = biological target: T3, Ets-2 325-464 (core Ets and autoinhibition domains) (Homo sapiens, UniProt P15036 325-464); assay: X-ray crystallography; 2.5 A; 3 Ets-2 and 3 duplexes per asymmetric unit; pH 5.5; EMSA: 50 mM Tris-HCl pH 7.5, 25 mM NaCl, 50 mM L-arginine-HCl, 0.5 mM EDTA, 0.1% Tween 20, 2 mM DTT, 5% glycerol, room temperature 15 min; probe 0.1 nM (Ets-2); conditions: protein: recombinant; tags: His tag removed by TEV; blunt
T3 sequence: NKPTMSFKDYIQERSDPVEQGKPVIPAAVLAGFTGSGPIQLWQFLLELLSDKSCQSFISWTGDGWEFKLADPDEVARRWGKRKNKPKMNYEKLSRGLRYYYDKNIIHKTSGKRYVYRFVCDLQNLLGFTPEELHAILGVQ

B1: single-site EMSA probe (dsDNA)
DNA 1: ATCTCACCGGAAGTGTAGCA
DNA 2: TGCTACACTTCCGGTGAGAT
Kd [1]: 100 ± 60 pM
Kd [2]: 400 ± 40 pM

B2: crystallization 10-mer (dsDNA)
DNA 1: ACCGGAAGTG
DNA 2: CACTTCCGGT
binding result [3]: binds

Source: paper PMC4375503, “Structural Insights into the Autoregulation and Cooperativity of the Human Transcription Factor Ets-2*”
